Where “and” joins values, the source holds several entries; their conditions need not be identical. Equal entries are not always repeated.
What was measured:
[1] = biological target: WIV1-CoV RBD (WIV1-CoV (bat)); assay: SPR, His-tagged VHH on NTA chip, RBD as analyte
[2] = biological target: WIV1-CoV RBD (WIV1-CoV (bat))
[3] = biological target: WIV1 RBD displayed on S. cerevisiae (WIV1 (bat sarbecovirus)); assay: flow cytometry, S. cerevisiae displaying the RBD, AF633 anti-human IgG [WIV1]
[4] = biological target: SARS-Cov-1 RBD displayed on S. cerevisiae
[5] = biological target: GD-Pangolin RBD displayed on S. cerevisiae (GD-Pangolin coronavirus)
[6] = biological target: RaTG13 RBD displayed on S. cerevisiae (bat coronavirus RaTG13); assay: flow cytometry, S. cerevisiae displaying the RBD, AF633 anti-human IgG [RaTG13]
[7] = biological target: LYRa11 RBD displayed on S. cerevisiae (bat SARS-related coronavirus LYRa11); assay: flow cytometry, S. cerevisiae displaying the RBD, AF633 anti-human IgG [LYRa11]
[8] = biological target: Mouse IgG1 Fc fused SARS-CoV-2 RBD (Sino Biological) (SARS-CoV-2; mouse) (UniProt P0DTC2)

Question: With SARS VHH-72 as the substance, how does the Kd [1] read?
Answer: The Kd was 7.47 nM.

Question: What about the koff [2] of the same substance?
Answer: The koff was 0.0026 s⁻¹.

Question: And the kon [2]?
Answer: The kon was 349000 M⁻¹ s⁻¹.

Question: For S309 antibody, which EC50 (read off the curve) [3] is on record?
Answer: Its EC50 (read off the curve) is 0.7 µg/mL.

Question: What about the EC50 (read off the curve) [4] of the same substance?
Answer: Its EC50 (read off the curve) is 0.5 µg/mL.

Question: What about the EC50 (read off the curve) [5] of the same substance?
Answer: Its EC50 (read off the curve) is 1 µg/mL.

Question: What about the EC50 (read off the curve) [6] of the same substance?
Answer: The EC50 (read off the curve) was 0.8 µg/mL.

Question: What about the EC50 (read off the curve) [7] of the same substance?
Answer: Its EC50 (read off the curve) is 0.8 µg/mL.

Question: For “VHH72-W52aH-hIgG1 Fc (P. pastoris supernatant) (Fc fusion)”, which % Signal decrease over 8 min dissociation [8] is on record?
Answer: Its % Signal decrease over 8 min dissociation is 49% and 51%.

Question: And the Kd [8]?
Answer: The Kd was 120 nM and 92.2 nM.

Source: patent US20230227537A1
